{"source": "patent US20140235701", "about": "“NGF APTAMER AND APPLICATION THEREOF” (RIBOMIC INC., published 2014)", "settings_in_all_cases": "tags: R&D Systems; chain copies: 2", "key": {"[1]": {"molecular_target": "T1, NGF (nerve growth factor) (Homo sapiens, UniProt P01138 P01138:122-241)", "T1 sequence (P01138 122-241, one chain of several)": "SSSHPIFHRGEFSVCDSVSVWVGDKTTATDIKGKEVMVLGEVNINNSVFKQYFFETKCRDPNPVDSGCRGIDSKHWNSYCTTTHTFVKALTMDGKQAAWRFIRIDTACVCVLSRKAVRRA", "assay": "SPR; binding maintained"}, "[2]": {"molecular_target": "T1, NGF (nerve growth factor)", "assay": "SPR; strong neurite inhibition at 10 nM"}, "[3]": {"molecular_target": "T1, NGF (nerve growth factor)", "assay": "SPR; more than 40N", "experimental": "As the measuring apparatus, BIAcore2000 manufactured by BIAcore was used and, as the sensor chip, CM5 that reacts with an amino group was used. […] For the reaction of an amino group on the protein side and a carboxyl group on the chip side, ethyl-3-carbodiimide hydrochloride and N-hydroxysuccinimide were used. After the reaction, blocking by ethanolamine-HCl was performed. The immobilized amount of NGF was set to 3,000-4,000 RU. An aptamer for analyte was prepared to 0.15 μM-0.5 μM. As a running buffer, solution A was used. Here, solution A is a mixed solution of 145 mM sodium chloride, 5.4 mM potassium chloride, 1.8 mM calcium chloride, 0.8 mM magnesium chloride, 20 mM Tris (pH 7.6), 0.05% Tween 20. As a regeneration solution, a mixed solution of 1M NaCl and 50 mM NaOH was used. NGF was immobilized on FC2, and the results of FC1 were subtracted to give a final sensorgram.\nThe binding activity of these aptamers to NGF was evaluated by the surface plasmon resonance method in the same manner as in Example 1."}, "[4]": {"molecular_target": "T1, NGF (nerve growth factor)", "assay": "SPR; strong inhibition of NGF-receptor binding", "experimental": "As directed in BIAcore's protocol, Protein A (21181, PIERCE) was immobilized on a CM5 sensor chip. About 700 to 1200 RU of human TrkA fused with the Fc portion of IgG (175-TK, R&D systems) or human P75 (367-NR, R&D systems) was immobilized thereon. As the analyte, a mixture of NGF (0.1 μM) and each aptamer (0.3 μM) was injected after being allowed to stand for 30 minutes. […] When NGF binds stronger to a receptor than an aptamer, the aptamer may be removed and NGF may bind to the receptor. Before starting the inhibition experiment, binding of TrkA or p75 and NGF was confirmed."}}, "data": [{"binder": "GGGUCCUGUUGCGUAGUUUCCGUCUGCGUGGCUGUUACCC (ssRNA, 2'-F C/U, dA, 2'-OH G)", "note": "[SEQ ID NO: 69]", "values": [{"measurement": "binding result", "setting": "[1]", "result": "binds"}]}, {"binder": "GGGUCCUGCUGCGUAGUUUCCGUCUAUGUGGCUGUUACCC (ssRNA, 2'-F C/U, dA, 2'-OH G)", "note": "[SEQ ID NO: 96]", "values": [{"measurement": "binding result", "setting": "[2]", "result": "binds"}]}, {"binder": "GGGUCCUGUUGCGUAGUUUCCGUCUACGUGACUGUUACCC (ssRNA, 2'-F C/U, dA, 2'-OH G)", "note": "[SEQ ID NO: 64]", "values": [{"measurement": "binding result", "setting": "[1]", "result": "binds"}]}, {"binder": "GGGUCCUGCUACGUAGUUUCCGUCUACGUGGCUGUUACCC (ssRNA, 2'-F C/U, dA, 2'-OH G)", "note": "[SEQ ID NO: 98]", "values": [{"measurement": "binding result", "setting": "[2]", "result": "binds"}]}, {"binder": "GGGUCCUGCUACGUAGUUUCCGUCUGCGUGGCUGUUACCC (ssRNA, 2'-F C/U, dA, 2'-OH G)", "note": "[SEQ ID NO: 97]", "values": [{"measurement": "binding result", "setting": "[2]", "result": "binds"}]}, {"binder": "SEQ ID NO: 17 (ssRNA, 2'-F C and U; 2'-OH G; 2'-H (deoxy) A) RNA: AGAAGUGCAAUACUUUCGCGGCAUAUGUGCAAACCUUGCCACGACUAUGUGCGCAUAC", "values": [{"measurement": "binding result", "setting": "[3]", "result": "binds"}]}, {"binder": "UGCAAUACUUUCGCGGCAUAUGUGCAAACCUUGCCACGACUAUGUGCG (ssRNA, 2'-F C and U; 2'-OH G; 2'-H (deoxy) A)", "note": "[SEQ ID NO: 18]", "values": [{"measurement": "binding result", "setting": "[3]", "result": "binds"}]}, {"binder": "GGGAAUACUUUCGCGGCAUAUGUGCAAACCUUGCCACGACUAUGUCCC (ssRNA, 2'-F C and U; 2'-OH G; 2'-H (deoxy) A)", "note": "[SEQ ID NO: 21]", "values": [{"measurement": "binding result", "setting": "[3]", "result": "binds"}]}, {"binder": "SEQ ID NO: 5 (ssRNA, 2'-F C and U; 2'-OH G; 2'-H (deoxy) A) RNA: GGGAGAACUUCGACCAGAAGUUAGAAGAGGACUAGUUGCUAAUGCCCUGGUUCGUCGCUAUAUGUGCGCAUACAUGGAUCCUC", "values": [{"measurement": "binding result", "setting": "[4]", "result": "binds"}]}, {"binder": "SEQ ID NO: 7 (ssRNA, 2'-F C and U; 2'-OH G; 2'-H (deoxy) A) RNA: GGGAGAACUUCGACCAGAAGACGCACCUCUUAUCACACAUGCGUCAGCCUUGUGAUACUAUGUGCGCAUACAUGGAUCCUC", "values": [{"measurement": "binding result", "setting": "[4]", "result": "binds"}]}, {"binder": "SEQ ID NO: 2 (ssRNA, 2'-F C and U; 2'-OH G; 2'-H (deoxy) A) RNA: GGGAGAACUUCGACCAGAAGUCCAAACGGGACUUUAUACCUCUGAGUCGCCUACGCUCCUAUGUGCGCAUACAUGGAUCCUC", "values": [{"measurement": "binding result", "setting": "[4]", "result": "binds"}]}, {"binder": "GCAAUACUUUCGCGGCAUAUGUGCAAACCUUGCCACGACUAUGUGC (ssRNA, 2'-F C and U; 2'-OH G; 2'-H (deoxy) A)", "note": "[SEQ ID NO: 19]", "values": [{"measurement": "binding result", "setting": "[3]", "result": "binds"}]}, {"binder": "SEQ ID NO: 3 (ssRNA, 2'-F C and U; 2'-OH G; 2'-H (deoxy) A) RNA: GGGAGAACUUCGACCAGAAGUUGGCACAUCCUGCUGCGUAGUUUCCGUCUCCGUGGCUGUUAUGUGCGCAUACAUGGAUCCUC", "values": [{"measurement": "binding result", "setting": "[4]", "result": "binds"}]}]}
